Data on 3 variants can be found in IntAct's records for PubMed 18154663.

The chains are these.
B1: RalBP1-associated Eps domain-containing protein 2 (Homo sapiens), Q8NFH8 (parent)
chain: MEAAAAAAAAAAAAAAAGGGCGSGPPPLLLSEGEQQCYSELFARCAGAAGGGPGSGPPEAARVAPGTATAAAGPVADLFRASQLPAETLHQITELCGAKRVGYFGPTQFYIALKLIAAAQSGLPVRIESIKCELPLPRFMMSKNDGEIRFGNPAELHGTKVQIPYLTTEKNSFKRMDDEDKQQETQSPTMSPLASPPSSPPHYQRVPLSHGYSKLRSSAEQMHPAPYEARQPLVQPEGSSSGGPGTKPLRHQASLIRSFSVERELQDNSSYPDEPWRITEEQREYYVNQFRSLQPDPSSFISGSVAKNFFTKSKLSIPELSYIWELSDADCDGALTLPEFCAAFHLIVARKNGYPLPEGLPPTLQPEYLQAAFPKPKWDCQLFDSYSESLPANQQPRDLNRMEKTSVKDMADLPVPNQDVTSDDKQALKSTINEALPKDVSEDPATPKDSNSLKARPRSRSYSSTSIEEAMKRGEDPPTPPPRPQKTHSRASSLDLNKVFQPSVPATKSGLLPPPPALPPRPCPSQSEQVSEAELLPQLSRAPSQAAESSPAKKDVLYSQPPSKPIRRKFRPENQATENQEPSTAASGPASAATMKPHPTVQKQSSKQKKAIQTAIRKNKEANAVLARLNSELQQQLKEVHQERIALENQLEQLRPVTVL
partner: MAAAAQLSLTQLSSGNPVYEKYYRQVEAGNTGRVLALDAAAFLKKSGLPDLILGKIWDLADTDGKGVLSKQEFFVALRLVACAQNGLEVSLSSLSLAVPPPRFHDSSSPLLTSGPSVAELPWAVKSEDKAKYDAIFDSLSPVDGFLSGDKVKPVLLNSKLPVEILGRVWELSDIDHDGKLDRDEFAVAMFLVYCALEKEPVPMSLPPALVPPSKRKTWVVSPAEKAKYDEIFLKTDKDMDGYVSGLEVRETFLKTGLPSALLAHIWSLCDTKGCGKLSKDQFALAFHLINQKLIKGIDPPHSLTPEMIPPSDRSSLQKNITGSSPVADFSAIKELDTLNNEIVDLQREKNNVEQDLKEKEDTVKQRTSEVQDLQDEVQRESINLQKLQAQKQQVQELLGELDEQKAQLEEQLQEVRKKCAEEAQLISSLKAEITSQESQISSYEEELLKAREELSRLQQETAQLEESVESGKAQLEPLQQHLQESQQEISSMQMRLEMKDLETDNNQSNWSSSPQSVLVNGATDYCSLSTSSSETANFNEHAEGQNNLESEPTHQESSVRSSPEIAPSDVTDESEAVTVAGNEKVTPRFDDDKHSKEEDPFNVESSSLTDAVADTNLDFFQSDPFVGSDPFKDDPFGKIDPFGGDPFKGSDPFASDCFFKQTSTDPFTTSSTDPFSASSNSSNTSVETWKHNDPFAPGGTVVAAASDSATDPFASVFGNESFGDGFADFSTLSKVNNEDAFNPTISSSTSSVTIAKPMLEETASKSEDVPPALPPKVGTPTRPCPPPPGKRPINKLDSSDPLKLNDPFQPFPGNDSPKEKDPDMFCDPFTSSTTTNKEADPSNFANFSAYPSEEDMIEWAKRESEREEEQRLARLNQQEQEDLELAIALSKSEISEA

Settings in all cases: with eps15_mouse Eps15, P42567
Variants of B1 are the subject of test [1].
Variants of B1 are the subject of test [2]. The source holds these as a separate data set.
In test [3] the parent is B1. This is another data set of the same source.
Test [4] covers variants of B1. This is another data set of the same source.

As for W324A, in test [1], the “effect of a mutation on the interaction” value is reported as “decreasing interaction”.

As to K312A, the “effect of a mutation on the interaction” value in test [2] is given as “decreasing interaction”; in test [3], “disrupting interaction”.

For K351A, the entries for the “effect of a mutation on the interaction” value in test [4] and in test [3] were “decreasing interaction” and “disrupting interaction”, respectively.
